Data: publication PMC12691745

Biological target: T1, proPpiA (UniProt P0AFL3)
T1 sequence: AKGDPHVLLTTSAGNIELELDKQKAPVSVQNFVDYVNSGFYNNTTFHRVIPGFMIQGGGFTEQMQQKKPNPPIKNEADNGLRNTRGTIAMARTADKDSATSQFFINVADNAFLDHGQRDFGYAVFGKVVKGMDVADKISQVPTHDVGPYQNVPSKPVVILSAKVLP

Sequence of SecB (P0AG86 whole entry): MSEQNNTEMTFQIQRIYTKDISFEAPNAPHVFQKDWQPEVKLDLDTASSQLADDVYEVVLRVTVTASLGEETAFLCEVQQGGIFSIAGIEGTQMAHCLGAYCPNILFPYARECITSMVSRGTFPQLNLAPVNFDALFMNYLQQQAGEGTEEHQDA

## SecB (from UniProt P0AG86 1-155) (natural protein)
  solubility of proPpiA after dilution from urea (18 µM protein, 30 min, centrifugation at 20,000× g), with 108 µM SecB; buffer control ~30% soluble: 70%
